Experimental findings from PMC13626732 are described below.

Assay [1] deals with actin-related protein (Arp) 2/3 complex (UniProt P61160). As to the kind of experiment: SPR; Arpin variants and dual-tailed peptides against the Arp2/3 complex; who was immobilised was not shown; hArpin as the dimer-enriched population. On the technique in general: Surface plasmon resonance follows binding to a sensor surface in real time, without labels.
Assay [2] has as its target GST-aCT (chimeric protein with Arpin's CT fused to the C-terminus of glutathione S-transferase). As to the kind of experiment: SEC; recombinant GST-aCT. Background: Size exclusion chromatography separates by hydrodynamic size, large species first.

For the substance “ArpinCT (residues 192–226) (from UniProt Q7Z6K5 192-226) (peptide)”, the Kd (in general, a measure of binding affinity in units of concentration) in assay [1] amounted to 17.8 µM. This lies in the double-digit micromolar range. Substance “GST-aCT (chimeric protein with Arpin's CT fused to the C-terminus of glutathione S-transferase)” had a Kd in assay [1] of 2.5 µM. For the same substance, in assay [2], the stoichiometry N (as a rule, a count of units in the complex or per binding partner) was determined as 2.

On to “full-length human Arpin (hArpin) (from UniProt Q7Z6K5 1-226) (natural protein)”, for which the Kd in assay [1] worked out at 14.1 µM.
